# Data taken from the RNAGym collection of RNA variant scans (doi:10.7554/elife.80360).
# B1: Hairpin Ribozyme (parent)
# chain: GUCCUCUUUCACGUGCGCGUGAAAGAGAGAAGUGAACCAGAGAAACACACGUUGUGGUAUAUUACCUGGUA
# Variants of: B1
# Assay: self-cleavage, relative activity (ratio to wild type); higher = more cleavage; co-transcriptional
row,Variant,self-cleavage
1,A26C A45C,0.155
2,G27U A28U,0.148
3,G27C U52A,0.167
4,G27C U52G,0.163
5,G27C U52C,0.22
6,G25C U55G,0.13
7,G25C U55C,0.108
8,G25U G54U,0.399
9,A26U A31U,0.0397
10,A26U A31G,0.389
11,A28C A41G,0.352
12,A26C U63C,0.177
13,A26U G42A,0.153
14,G27A A71C,0.95
15,G27C C65A,0.146
16,A26C C66A,0.34
17,A26C C66G,0.12
18,G27C U53C,0.318
19,G27U U52G,0.114
20,G27U U52C,0.377
21,A26U C48A,0.153
22,G27C A30C,0.0463
23,A26C G69A,0.327
24,G27A A31C,0.193

row,Variant,self-cleavage
1,A26U G29U,0.151
2,A26U G29C,0.135
3,G27A A47G,0.129
4,G27A C50G,0.131
5,G25U G57C,0.163
6,G27A U33G,0.0835
7,G27A U33C,0.0597
8,G27A G54U,0.213
9,G27A G54A,0.221
10,A26U U58A,0.391
11,A26G A61G,0.161
12,A28C A64C,0.245
13,A28C A64G,0.285
14,G27U A31C,0.205
15,G27U A31U,0.119
16,G25U C50G,0.25
17,G25U C50U,0.287
18,G27A C48G,0.151
19,A26C G34U,1.03
20,A26C G27A,0.139
21,G27U U67G,0.111
22,G27U U67C,0.0907
23,A26G G40U,0.128
24,G27U A36G,0.393

row,Variant,self-cleavage
1,G27U A36U,0.0647
2,G27U A36C,0.0992
3,G27C A43G,0.107
4,G27C A43C,0.107
5,G27A A64G,0.303
6,G27U G40A,0.117
7,G27U G42U,0.188
8,A26C U33G,0.0995
9,G27U C37G,0.109
10,G27U C37U,0.22
11,A26U A30G,0.142
12,G25U U63C,0.184
13,G25U U63G,0.174
14,G27C A71G,0.143
15,G27C A71U,0.178
16,G27U G32C,0.129
17,G25U A28U,0.509
18,G27A C46U,0.127
19,G27C C38U,0.131
20,G27C C38G,0.0571
21,A28C A49G,0.173
22,A28C A49U,0.192
23,A26U G27A,0.228
24,G27C G69C,0.1

row,Variant,self-cleavage
1,A26U A71C,1.19
2,A26C U67A,0.0843
3,A26C U67C,0.21
4,G27U G51U,0.402
5,A26C A35C,0.726
6,G27A U55A,0.169
7,G25U A26U,0.542
8,A26U U63C,0.199
9,A28C A30C,0.0316
10,A28C A30G,0.136
11,A28C A30U,0.126
12,A28C A39G,0.171
13,A26C G40A,0.295
14,G27U,0.282
15,G27A,0.454
16,G27C,0.172
17,G27C G51A,0.266
18,A26U G34C,1.51
19,A26U G34A,0.954
20,G27A A43G,0.0988
21,G27U U70G,0.228
22,A26C U58C,0.771
23,A26C U58A,0.623
24,A26C U58G,0.496

row,Variant,self-cleavage
1,G27A A35C,0.485
2,A26C A61G,0.0543
3,A26C A61U,0.184
4,A26C A71C,1.08
5,A26G U67A,0.148
6,A26G U67C,0.263
7,A26G G27A,0.275
8,A26G G27U,0.121
9,A26C A49U,0.239
10,A26C A49G,0.461
11,A26U C46A,0.146
12,A26C C50A,0.117
13,A26G A44C,0.0629
14,A26G A44G,0.241
15,G27U A61U,0.107
16,G27U A61G,0.171
17,A26G C48A,0.13
18,G25U U67G,0.18
19,G25U U67C,0.178
20,G27U C38A,0.12
21,G27U C38G,0.17
22,G27A G42U,0.147
23,G27A U60G,0.213
24,G27A U60A,0.334

row,Variant,self-cleavage
1,A26U G56C,0.135
2,G27C A36U,0.128
3,G27C A36C,0.113
4,G27C A36G,0.14
5,A26G A39C,0.571
6,A28C A61G,0.1
7,G27A G68A,0.241
8,G27C G56U,0.131
9,G27C G56A,0.0609
10,A26U G57U,0.143
11,G27U U55A,0.152
12,G25U A71C,1.08
13,G25U A71U,0.575
14,G25C U62A,0.188
15,G25U A61U,0.185
16,G25U G40A,0.256
17,G25U G40C,0.131
18,G27U C66A,0.169
19,A26G G54U,0.349
20,G27A G34A,0.551
21,G27C C50U,0.0886
22,G27C C50G,0.114
23,A26U A64G,0.399
24,G25U U52C,0.626

row,Variant,self-cleavage
1,G25U U52G,0.696
2,G25U C38U,0.332
3,A26G A45G,0.132
4,G27U A64G,0.205
5,G27A C66G,0.133
6,G27C G57U,0.174
7,G27C G57C,0.0926
8,G27C G57A,0.15
9,A26G U33G,0.0904
10,A26G U33C,0.0771
11,G25C U63G,0.189
12,G25C U63A,0.0846
13,G25C U63C,0.204
14,G27A U58G,0.151
15,A26G G69A,0.451
16,A26U U67A,0.196
17,A26U G68C,0.103
18,A26U G68U,0.207
19,A26G C50A,0.262
20,G27U A35C,0.44
21,G27U A35U,0.203
22,G25U U60A,0.391
23,G25C U58G,0.403
24,A26U C66G,0.16

row,Variant,self-cleavage
1,A26U U52A,0.788
2,A26U G40A,0.175
3,A26U G40U,0.131
4,G27C G54C,0.151
5,G27C G54U,0.192
6,A26C U62A,0.269
7,A26C U62C,0.213
8,A26G C38G,0.138
9,A26G C38U,0.297
10,A26G C46A,0.0799
11,A26G C46U,0.267
12,G27A U62C,0.13
13,G27A U62G,0.221
14,A26C G68U,0.186
15,G27A U67G,0.175
16,G27A U67A,0.0995
17,G27A C65G,0.161
18,A26U G54U,0.34
19,A26C A36U,0.556
20,A26C A36G,0.846
21,G27C A49U,0.129
22,G25U G34C,1.13
23,G25U G34U,1.28
24,G27C U33G,0.0854

row,Variant,self-cleavage
1,G27C U33A,0.0754
2,G27C U33C,0.117
3,G27U U62G,0.0869
4,A26C G42U,0.307
5,A26C G42A,0.12
6,A26G A31C,0.114
7,A26G A31U,0.183
8,A26U A47G,0.142
9,G25C U70G,0.402
10,G27C A31U,0.223
11,G27U A47U,0.192
12,A26U C37U,0.466
13,G27C G68C,0.0698
14,G27C G68A,0.105
15,A26U A61U,0.15
16,A26G U52A,0.896
17,G27C G29U,0.179
18,G27C G29A,0.138
19,A26C U70C,0.728
20,G27A A28G,0.36
21,G27A A28C,0.295
22,A26U A59C,0.137
23,G27A G29A,0.189
24,A26G A49G,0.665

row,Variant,self-cleavage
1,A26C U52G,0.409
2,A26C U52A,0.599
3,G27C C66A,0.157
4,G27C C66U,0.162
5,A26C A59G,0.0796
6,A26G U70C,0.89
7,G25U U53A,0.647
8,A26G G29A,0.159
9,A26G G29C,0.139
10,G27C A39C,0.0945
11,G25U G51C,0.589
12,A26C G57A,0.141
13,A26G G68C,0.312
14,A26U G69U,0.225
15,A26G G34C,1.01
16,G27U A59U,0.146
17,G27A G40A,0.143
18,G27C U60C,0.333
19,G27A G32U,0.0607
20,G27C G40C,0.107
21,G27C G40A,0.0679
22,A26U C38A,0.188
23,A26C U53A,0.521
24,G27U U63C,0.0849

row,Variant,self-cleavage
1,G27A A36C,0.253
2,G27A A36G,0.42
3,A26U U70C,0.721
4,G27A G56C,0.101
5,G27A G56U,0.156
6,G27U G69A,0.0822
7,G27U G69U,0.152
8,G27U G69C,0.2
9,A26C U60C,0.602
10,A26C U60G,0.365
11,A26C C37U,0.446
12,G27C U55A,0.156
13,G27C U55G,0.113
14,A26U U53A,0.474
15,G27C A64G,0.186
16,A26C C46U,0.172
17,A26U A35G,0.786
18,G27U A30U,0.116
19,G25U A35U,0.474
20,G27A G69U,0.182
21,G27U C65G,0.188
22,G27U C65U,0.125
23,A26G A41C,1.25
24,G27A A39U,0.166

row,Variant,self-cleavage
1,G27A A39G,0.121
2,A26G C66A,0.171
3,A26G C66U,0.429
4,A26C A28C,0.329
5,A26C C65G,0.226
6,G27U G34C,1.16
7,A26G G32A,0.103
8,A26C A43U,0.224
9,A26C A43G,0.144
10,G25U G29U,0.126
11,G27C G34C,0.971
12,G27C G34A,0.161
13,G27C G34U,0.779
14,G27A A45C,0.186
15,G27A A45G,0.196
16,G27C U67G,0.0952
17,G27C C37A,0.121
18,G27U A39G,0.149
19,G25U A59C,0.195
20,G27C A41G,0.234
21,G27A A61G,0.114
22,A26G U63C,0.225
23,A26G U63A,0.101
24,G27C C48U,0.231

row,Variant,self-cleavage
1,A26C A39G,0.222
2,G25U A36C,0.463
3,G25U A36U,0.4
4,G27U A49G,0.214
5,G25U A45G,0.118
6,G25U A45U,0.162
7,A26C A41U,0.74
8,A26C A41G,0.633
9,A26C A64C,0.216
10,G25U A39U,0.242
11,A28C A44U,0.046
12,G25U U33A,0.0923
13,G25U U33C,0.145
14,A26U A39U,0.266
15,A26G A28G,1.12
16,G27U C48U,0.099
17,A26G A30U,0.108
18,G27U G54U,0.208
19,G27U G54C,0.133
20,G27U G54A,0.26
21,G27C A35G,0.181
22,G27C A35C,0.143
23,A26G A59C,0.162
24,A26G A59G,0.158

row,Variant,self-cleavage
1,G27C A47C,0.0432
2,G27A C38A,0.127
3,G27U U60A,0.243
4,A26U A43U,0.139
5,A26U A43G,0.121
6,A28C A59C,0
7,G27U C50U,0.214
8,G27U C50G,0.175
9,A26G A64G,0.55
10,A26G A64C,0.303
11,A26G A64U,0.271
12,G27A G57U,0.157
13,A26G U55A,0.283
14,A26C U55G,0.297
15,G25U C48G,0.129
16,G25U A31G,0.385
17,G27U G57A,0.209
18,G27U G57U,0.144
19,A26U A41U,0.989
20,A26U A41G,0.841
21,G25U A47G,0.0793
22,G25U A47C,0.241
